In patent US20170320956A1 (KYMAB, published 2017):
Numbering of substitutions follows the chain as printed.

T1: mouse LIGHT (mouse, UniProt Q9QYH9 72-239, limits assumed)
T1 construct: also called murine LIGHT
T1 sequence (looked up): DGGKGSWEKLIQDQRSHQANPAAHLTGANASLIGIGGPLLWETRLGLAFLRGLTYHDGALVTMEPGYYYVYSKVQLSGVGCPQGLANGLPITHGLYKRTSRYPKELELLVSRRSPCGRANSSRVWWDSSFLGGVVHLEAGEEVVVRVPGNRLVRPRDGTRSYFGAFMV

T2: recombinant human LIGHT-214E, FLAG-tagged extracellular domain (human)
T2 chain: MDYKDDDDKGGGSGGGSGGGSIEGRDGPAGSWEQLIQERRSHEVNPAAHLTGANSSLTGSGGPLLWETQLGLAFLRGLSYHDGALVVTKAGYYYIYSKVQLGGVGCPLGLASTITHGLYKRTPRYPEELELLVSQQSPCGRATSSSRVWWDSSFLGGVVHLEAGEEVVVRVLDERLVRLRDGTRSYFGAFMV

T3: recombinant human LIGHT-214K, FLAG-tagged extracellular domain (human)
T3 construct: the IgK leader peptide is marked only by underlining (not visible here), so its residues were not removed; Trimer
T3 chain: T2 chain with E166K

T4: rabbit LIGHT protein, FLAG-tagged extracellular domain (rabbit)
T4 chain: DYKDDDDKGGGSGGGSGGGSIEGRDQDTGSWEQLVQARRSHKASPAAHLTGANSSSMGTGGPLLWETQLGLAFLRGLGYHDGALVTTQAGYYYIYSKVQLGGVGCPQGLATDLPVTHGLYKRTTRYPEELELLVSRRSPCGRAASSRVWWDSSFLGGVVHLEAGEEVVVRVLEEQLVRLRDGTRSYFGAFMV

B1: 14B09 (purified from hybridoma supernatant) (antibody, V domains shown)
VH: QVQLVQSGAEVKKPGASVKVSCRASGYTFTSYLMHWVRQAPGQRLEWMGWINVGNGNTKYSQKFQGRVTITRDTSASTAYMELSGLRSEDTAVYYCARNYYNWFDPWGQGTLVTVSS
VL: QSALTQPASVSGSPGQSITISCTGTSSDVGGYNYVSWYQQHPGKAPKLMIYDVSKRPSGVSNRFSGSKSGNTASLTISGLQAEDEADYYCFSYAGSSTVVFGGGTKLTVL
notes: Murine constant / human variable chimeric IgG, lambda, Protein G purified from hybridoma supernatant
B2: 13H04 (purified from hybridoma supernatant) (antibody, V domains shown)
VH: QVQLVQSGAEVKKPGASVKVSCKASGYTFTSYGISWVRQAPGQGLEWMGWISAHNANTNYAQKLQGRVTMTTDTSTSTAYMELRSLRSDDTAMYYCARLYRNWFDPWGQGTLVTVSS
VL: B1 VL with F91C, V99L, V100L
notes: as for B1
B3: 42A02 (purified from hybridoma supernatant) (antibody, V domains shown)
VH: EVQLVESGGGLVQPGGSLRLSCAASGFTFSSYVMSWVRQAPGKGLEWVSVISSSGVTTYYADSVKGRFTISRDNSKNTLYLQMNSLRAEETAVYYCAKGNYGSGSFCDYWGQGTPVTVSS
VL: SYVLTQPPSVSVAPGKTARITCGGNNIGSKSVHWYQQRPGQAPILVIYYDSDRPSGIPERFSGSNSGNSATLTISRVEAGDEADYHCQVWESSSDHPVFGGGTKLTVL
notes: as for B1
B4: 29C09 (purified from hybridoma supernatant) (antibody, V domains shown)
VH: QEQLVQSGAEVKKPGASVKVSCKASGYTFTSYDINWVRQATGQGLEWMGWMNPNSGYTGYAQKFQGRVTMTRNTSIRTVYMELSSLRSEDTAVYYCARGGETFDIWGQGTMVTVSS
VL: SYELTQPPSVSVSPGQTARITCSGDALPKKYAYWYQQKSGQAPVLVIYEDSKRPSGIPERFSGSSSGTMATLTISGAQVEDEADYYCYSTDSSDNHSVFGTGTKVTVL
notes: as for B1
B5: 144F05 (purified from hybridoma supernatant) (antibody, V domains shown)
VH: QVQLQESGPGLVKPSGTLSLTCAVSGGSISSTHWWNWVRQPPGKGLEWIGEIYHSGSTNCNPSLKSRVTISVDKSKNQFSLKMNSVTAADTAVYYCTRGGAAAGTNYGLDVWGQGTTVTVSS
VL: not shown
notes: Murine constant / human variable chimeric IgG, kappa, Protein G purified from hybridoma supernatant
B6: 31A10 (purified from hybridoma supernatant) (antibody, V domains shown)
VH: QVQLQESGPGLVKPSGTLSLTCAVSGGSISSINWWNWVRQPPGKGLEWIGEVSHSGITNYNPSLKSRVTMSVDKAKNQFSLKLNSVTAADTAVYYCARERAVADYHGMDVWGQGTTVTVSS
VL: AIQLTQSPSSLSASVGDRVTITCRASQGISSALAWFQQKPGKPPKLLIFDASDLESGVSSRFSGSGSGTDFTLTISSLQPGDFATYYCQQFNSYPITFGQGTRLEIK
notes: as for B5
B7: 62C01 (purified from hybridoma supernatant) (antibody, V domains shown)
VH: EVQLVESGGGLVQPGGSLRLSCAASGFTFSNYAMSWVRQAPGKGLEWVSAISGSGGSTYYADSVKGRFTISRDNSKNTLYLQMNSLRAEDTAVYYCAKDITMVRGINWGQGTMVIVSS
VL: DIQMTQSPSSVSASVGDRVTITCRASQGISNWLAWYQQKPGKAPKLLIFAASSLQSGVPSRFSGSGSGTDFTLTISSLQPEDFATYYCQQSNSFPLTFGGGTKVEIK
notes: as for B5
B8: 98C07 in human IgG4(PE) format (antibody, V domains shown)
VH: QVQLVESGGGLVKPGGSLRLSCAASGFTFSDYYMSWIRQAPGKGLEWVSYISRSSFIYYSESVKGRFTISRDNAKNSLYLQMNSLRAEDTAVYYCARWELSPFDYWGQGTLVTVSS
VL: DIQMTQSPSSLSASVGDRVTITCRASQGISNYLAWFQQKPGKAPKSLIYAASSLQSGVPSKFSGSGSGTDFTLTISSLQPEDFATYFCQQYNTYPFTFGPGTKVDIK
B9: 31A10 in human IgG4(PE) format (antibody, V domains shown)
VH: B6 VH
VL: B6 VL

molecular target: T1, mouse LIGHT; test: SPR ProteOn, mAb captured on anti-mouse IgG

| binding result | Binder |
| --- | --- |
| no binding | B1 |
| no binding | B2 |
| no binding | B3 |
| no binding | B4 |
| no binding | B5 |

molecular target: human LIGHT-214E, full length, expressed on the surface of CHO-S cells (human, UniProt O43557 1-240); test: flow cytometry, CHO-S cells expressing hLIGHT-214E

| binding result | Binder |
| --- | --- |
| binds | B1 |
| binds | B2 |
| binds | B6 |
| binds | B7 |
| binds | B3 |
| binds | B4 |
| binds | B5 |

Molecular target: T2, recombinant human LIGHT-214E, …
Test: cell-based or functional assay

| HT29 IL-8 release, IC50 [nM] | Binder |
| --- | --- |
| 1.31 | B1 |
| 1.33 | B2 |
| 0.217 | B6 |
| 0.578 | B7 |
| 0.917 | B3 |
| 0.33 | B4 |
| 2.75 | B5 |

molecular target: T5, recombinant cynomolgus monkey LIGHT, FLAG-tagged extracellular domain (cynomolgus (Macaca fascicularis), UniProt E9NVF7 59-240); test: SPR ProteOn, mAb captured on anti-human IgG, 37 C
T5 construct: extracellular domain; also called cynomolgus LIGHT; cyno LIGHT

| Kd [nM] | Binder |
| --- | --- |
| 0.202 | B8 |

Molecular target: T2, recombinant human LIGHT-214E, …
Test: SPR ProteOn, mAb captured on anti-human IgG, 37 C

| Kd [nM] | Binder |
| --- | --- |
| 0.018 | B8 |

Molecular target: T2, recombinant human LIGHT-214E, …
Test: HTRF competition, AlexaFluor 647 LTβR-Fc binding to Flag-hLIGHT-214E
Experimental: (§1) The following methods were carried out with a titration of inhibitor in order to establish the clone potency as measured by IC50 values in the assay. 5 μl of Flag-tagged hLIGHT (in-house) diluted to 2.5 nM final concentration (10 nM working concentration) in HTRF buffer with 5 μl of a titration of antibody purified from hybridoma supernatant diluted in HTRF assay buffer from 300 nM final (1200 nM working concentration) was pre-incubated for 1 hour at room temperature. To wells used to define total binding, 5 μl of LIGHT (10 nM working, 2.5 nM final) and 5 μl of hybridoma maintaining media (HMM,)) were added. To wells used to define non specific binding (receptor only) 10 μl of HMM was added. Total and non specific binding wells were pre-incubated for 1 hr at RT in the same plate as wells containing titration of inhibitor.
(§2) The final IgG4(PE) format lead panel was analysed for neutralization activity as in Example 3. Antibodies were tested for their ability to neutralize LIGHT binding to its receptors, HVEM and LTβR, in an HTRF assay. Antibodies were also tested for their ability to neutralize LIGHT-induced IL-8 release by HT29 colon carcinoma cells.
(§3) HTRF assays were performed as per Example 3, with the following modifications: HVEM-Fc and LTβR-Fc were labelled with AlexaFluor 647, and an anti-Flag K antibody (Cisbio) was used for detection.

| IC50 [nM] | Binder |
| --- | --- |
| 2.19 | B9 |
| 1.62 | B8 |

molecular target: T5, recombinant cynomolgus monkey LIGHT, …; test: SPR ProteOn, mAb captured on anti-mouse IgG, LIGHT 256 nM, 25 C, apparent affinity
Experimental: (§4) SPR analysis was carried out using the ProteOn™ XPR36 Array System (BioRad). Anti-mouse IgG (GE Healthcare BR-1008-38) was immobilised on a GLC biosensor surface using amine coupling, the surface was then blocked using 1M ethanolamine. […] Apparent affinities for the LIGHT-antibody interaction were determined using the 1:1 model inherent to the ProteOn XPR36 analysis software. The assay was run using HBS-EP (Teknova) as running buffer and carried out at 25° C.

| Kd [nM] | Binder |
| --- | --- |
| 0.156 | B1 |
| 0.561 | B2 |
| 1.64 | B7 |
| 0.084 | B3 |
| 2.28 | B4 |
| 2.89 | B5 |

Molecular target: T2, recombinant human LIGHT-214E, …
Test: as above
Experimental: as §4

| Kd [nM] | Binder |
| --- | --- |
| 0.492 | B1 |
| 0.881 | B2 |
| 1.02 | B7 |
| 0.062 | B3 |
| 0.311 | B4 |
| 3.25 | B5 |

Molecular target: T3, recombinant human LIGHT-214K, …
Test: as above
Experimental: as §4

| Kd [nM] | Binder |
| --- | --- |
| 3.37 | B1 |
| 1.57 | B2 |
| 0.349 | B6 |
| 23.6 | B7 |
| 0.161 | B3 |
| 0.605 | B4 |
| 5.78 | B5 |

Molecular target: T2, recombinant human LIGHT-214E, …
Test: HTRF competition, LTβR-Fc binding to Flag-hLIGHT-214E
Experimental: as §1
(§5) LIGHT receptor was diluted in HTRF assay buffer and added to all wells, 5 μl/well of HVEM-Fc or LTβR-Fc (R&D systems) at 1.2 nM for HVEM (0.3 nM final) and 0.4 nM for LTβR (0.1 nM final).

| IC50 [nM] | Binder |
| --- | --- |
| 1.57 | B1 |
| 1.97 | B2 |
| 1.45 | B6 |
| 2.66 | B7 |
| 1.65 | B3 |
| 1.55 | B4 |
| 3.32 | B5 |

Molecular target: T2, recombinant human LIGHT-214E, …
Test: HTRF competition, AlexaFluor 647 HVEM-Fc binding to Flag-hLIGHT-214E
Experimental: as §1, §2, §3

| IC50 [nM] | Binder |
| --- | --- |
| 1.15 | B9 |
| 0.82 | B8 |

Molecular target: T2, recombinant human LIGHT-214E, …
Test: HTRF competition, HVEM-Fc binding to Flag-hLIGHT-214E
Experimental: as §1, §5

| IC50 [nM] | Binder |
| --- | --- |
| 0.895 | B1 |
| 1.09 | B2 |
| 0.662 | B6 |
| 1.6 | B7 |
| 0.898 | B3 |
| 0.922 | B4 |
| 1.34 | B5 |

Molecular target: T4, rabbit LIGHT protein, FLAG-tagged …
Test: SPR ProteOn, mAb captured on anti-human IgG, 25 C
Experimental: This created a capture surface suitable for capturing human antibodies. The LIGHT antibodies were captured on this anti-human IgG surface, and then human and rabbit LIGHT proteins were passed over captured LIGHT Abs at a concentration of 200 nM. A buffer injection was used to double reference the LIGHT binding sensorgrams. The assay was run at 25° C., using HBS-EP as running buffer.

| binding result | Binder |
| --- | --- |
| binds | B9 |
| binds | B8 |

Molecular target: T2, recombinant human LIGHT-214E, …
Test: cell-based or functional assay
Remark: another data set of the same source

| HT29 IL-8 release, IC50 [nM] | Binder |
| --- | --- |
| 0.29 | B9 |
| 0.18 | B8 |
